Assay results: US7727960B2, “C5a receptor antagonists” (Jerini AG, priority 2003, dated 2010)
Positions of bridges follow the written chain, without caps; N, C: chain ends. Non-standard residues stand in square brackets, D forms with d. Residues, ends and D or L forms follow the SMILES beside them. No end group written: not given here. Phenylbutanoyl = Phenylbutanoyl residue at the C-terminus; NEtPhe = CCN[C@@H](Cc1ccccc1)C(=O)O; NMeF = CN[C@@H](Cc1ccccc1)C(=O)O; Cha = N[C@@H](CC1CCCCC1)C(=O)O; dCha = N[C@H](CC1CCCCC1)C(=O)O; AllylGly = C=CC[C@H](N)C(=O)O; Nle = CCCC[C@H](N)C(=O)O; Orn = NCCC[C@H](N)C(=O)O; dNMeA = CN[C@H](C)C(=O)O

B1: Ac-Phe-[Orn-Pro-cha-Trp-Phe] (peptide)
peptide: Ac-F[Orn]P[dCha]WF
modifications: lactam (positions not given here); not fully specified (bridges); printed as Ac-Phe-[Orn-Pro-cha-Trp-Phe]
B2: Ac-Phe-[Orn-Pro-cha-Trp-Lys] (peptide)
peptide: Ac-F[Orn]P[dCha]WK
modifications: lactam (positions not given here); not fully specified (bridges); printed as Ac-Phe-[Orn-Pro-cha-Trp-Lys]
B3: Ac-Phe-[Orn-Pro-cha-Trp-Ala] (peptide)
peptide: Ac-F[Orn]P[dCha]WA
modifications: lactam (positions not given here); not fully specified (bridges); printed as Ac-Phe-[Orn-Pro-cha-Trp-Ala]
B4: Ac-Phe-[Orn-Pro-cha-Ala-Arg] (peptide)
peptide: Ac-F[Orn]P[dCha]AR
modifications: lactam (positions not given here); not fully specified (bridges); printed as Ac-Phe-[Orn-Pro-cha-Ala-Arg]
B5: Ac-Phe-[Orn-Pro-ala-Trp-Arg] (peptide)
peptide: Ac-F[Orn]P[dA]WR
modifications: lactam (positions not given here); not fully specified (bridges); printed as Ac-Phe-[Orn-Pro-ala-Trp-Arg]
B6: Ac-Ala-[Orn-Pro-cha-Trp-Arg] (peptide)
peptide: Ac-A[Orn]P[dCha]WR
modifications: lactam 2-C
SMILES: CC(=O)N[C@@H](C)C(=O)N[C@H]1CCCNC(=O)[C@H](CCCNC(=N)N)NC(=O)[C@H](Cc2c[nH]c3ccccc23)NC(=O)[C@@H](CC2CCCCC2)NC(=O)[C@@H]2CCCN2C1=O
B7: Ac-Phe-[Orn-Pro-cha-Trp-Nle] (peptide)
peptide: Ac-F[Orn]P[dCha]W[Nle]
modifications: lactam (positions not given here); not fully specified (bridges); printed as Ac-Phe-[Orn-Pro-cha-Trp-Nle]
B8: Ac-Phe-[Orn-Pro-cha-Trp-Eaf] (peptide)
peptide: Ac-F[Orn]P[dCha]W[AllylGly]
modifications: lactam (positions not given here); not fully specified (bridges); printed as Ac-Phe-[Orn-Pro-cha-Trp-Eaf]
B9: Ac-Lys-Phe-[Orn-Pro-cha-Trp-Nle] (peptide)
peptide: Ac-KF[Orn]P[dCha]W[Nle]
modifications: lactam 3-C
SMILES: CCCC[C@@H]1NC(=O)[C@H](Cc2c[nH]c3ccccc23)NC(=O)[C@@H](CC2CCCCC2)NC(=O)[C@@H]2CCCN2C(=O)[C@@H](NC(=O)[C@H](Cc2ccccc2)NC(=O)[C@H](CCCCN)NC(C)=O)CCCNC1=O

molecular target: T1, human C5aR (CD88) (human, UniProt P21730 1-350); test: cell-based or functional assay; details: not given
T1 sequence (looked up): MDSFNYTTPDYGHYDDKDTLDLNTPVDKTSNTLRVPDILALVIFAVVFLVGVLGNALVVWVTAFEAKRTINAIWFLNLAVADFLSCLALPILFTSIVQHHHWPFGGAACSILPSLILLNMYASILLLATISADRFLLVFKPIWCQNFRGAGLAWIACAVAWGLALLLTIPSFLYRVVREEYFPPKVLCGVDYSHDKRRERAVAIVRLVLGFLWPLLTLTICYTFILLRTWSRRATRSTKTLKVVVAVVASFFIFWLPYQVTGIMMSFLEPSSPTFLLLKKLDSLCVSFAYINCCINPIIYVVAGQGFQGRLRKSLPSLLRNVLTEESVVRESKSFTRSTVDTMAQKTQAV

Molecule	IC50, enzyme release assay [µM]	IC50, functional assay [µM]
B1	0.023	–
B2	8.7	–
B3	–	5.6
B4	–	> 30
B5	–	> 30
B6	–	> 30

molecular target: T1, human C5aR (CD88); test: cell-based or functional assay; details: not given; remark: another data set of the same source

Molecule	IC50 activity group, enzyme release assay [µM]
B1	≤ 0.05
FXPXWX (not fully specified; Ac-; Orn2; cha4 (D); Cit6; cyclic [2-6]) [Ac-Phe-[Orn-Pro-cha-Trp-Cit]]	≤ 2
B2	> 2
B7	≤ 0.05
{HOCH2(CHOH)4‑C═N‑O‑CH2‑CO}-F[Orn]P[dCha]W[Nle] (lactam 2-C) [HOCH2(CHOH)4-C═N-O-CH2-CO-Phe-[Orn-Pro-cha-Trp-Nle]]	≤ 0.2
B8	≤ 0.01
B3	> 2
B9	≤ 0.05
B4	> 2
B5	> 2
B6	> 2

molecular target: T1, human C5aR (CD88); test: cell-based or functional assay; details: not given; remark: another data set of the same source

Molecule	EC50, agonistic activity, enzyme release assay [µM]
B1	> 1.43
B7	> 1.43
{HOCH2(CHOH)4‑C═N‑O‑CH2‑CO}-F[Orn]P[dCha]W[Nle] (lactam 2-C) [HOCH2(CHOH)4-C═N-O-CH2-CO-Phe-[Orn-Pro-cha-Trp-Nle]]	> 1.43
B8	> 1.43
{Ph‑CH2‑CH2‑CO}-[Orn]P[dCha]W[Nle] (lactam 1-C) [Ph-CH2-CH2-CO-[Orn-Pro-cha-Trp-Nle]]	> 1.43
H-F[Orn]P[dCha]W[Nle] (lactam 2-C; not fully specified; printed as H-Phe-[Orn-Pro-cha-Trp-Nle]) [H-Phe-[Orn-Pro-cha-Trp-Nle]]	> 1.43
B9	> 1.43

molecular target: T1, human C5aR (CD88); test: cell-based or functional assay; details: not given; remark: another data set of the same source

Molecule	IC50 activity group, enzyme release assay (Example 30) [µM]
FXPXWX (not fully specified; Ac-; Orn2; cha4 (D); Cit6; cyclic [2-6]) [Ac-Phe-[Orn-Pro-cha-Trp-Cit]]	≤ 2

molecular target: T2, C5aR (Homo sapiens, UniProt P21730); test: Prior-art antagonistic activity (WO 03/033528); details: WO 03/033528 values
T2 construct: derived from measurements with isolated membranes from polymorphonuclear neutrophilic granulocytes (PMN membranes); host or cells: isolated membranes of polymorphonuclear neutrophilic granulocytes (PMN membranes)
T2 sequence (P21730 1-350): T1 sequence (looked up)
Text: In WO 03/033528 single substitutions of various amino acids in the molecule Ac-Phe[Orn-Pro-cha-Trp-Arg](compound 1) [SEQ ID NO: 6] are reported. A decrease of the affinity to the C5aR and a decrease in antagonistic potency is described for the substitution of the Arg with homoarginine (compound 44), citrulline (compound 45), lysine ([…]), or canavanine (compound 47). […] No IC50 value is reported for canavanine. […] Apart from the effects of charged arginine substitutions (homoarginine and lysine), in particular the strong decrease in binding strength upon exchange of the charged arginine (0.45 μM) by the uncharged citrulline (6 μM) is remarkable. The antagonistic activity is reduced even more (Arg: 0.028 μM, Cit: 0.690 μM). […] This also reflects that the size of the side chain itself is not sufficient as a criterium for predicting the activity. WO 03/033528 sets forth that the arginine (1) substitution to citrulline (45) results in a compound with allegedly remarkable antagonistic properties (p. 44, line 28ff). However, the cut off rate for what is remarkable, is chosen arbitrarily and the significant 24-fold drop in activity underlines the in the prior art well known importance of the C-terminal arginine in the peptidic C5aR antagonists. […]

Molecule	drop in activity on substitution of arginine by citrulline [fold]
CC(=O)N[C@@H](Cc1ccccc1)C(=O)N[C@H]1CCCNC(=O)[C@H](CCCNC(N)=O)NC(=O)[C@H](Cc2c[nH]c3ccccc23)NC(=O)[C@@H](CC2CCCCC2)NC(=O)[C@@H]2CCCN2C1=O [Compound 10, Ac-Phe-[Orn-Pro-cha-Trp-Cit]]	24

molecular target: T2, C5aR; test: not given; details: PMN membranes; read-out: IC50 binding to C5aR (WO 92/12168); cited from earlier work

Molecule	IC50 [µM]
(N-Methyl)Phe-Lys-Pro-cha-ψ{CH2- N(CH2CH2C6H5)}-Arg-OH	0.36
(N-Methyl)Phe-Lys-Pro-cha-Phe-Phenylbutanoyl ([NMeF]KP[dCha]F-Phenylbutanoyl)	2.6

same assay, conditions: PMN membranes; read-out: IC50 for the binding (WO 90/09162); cited from earlier work

Molecule	IC50 [µM]
CC(=O)N[C@@H](Cc1ccccc1)C(=O)N[C@@H](CCCCN)C(=O)N[C@@H](C)C(=O)N[C@@H](CC1CCCCC1)C(=O)N[C@@H](C)C(=O)N[C@@H](CC(C)C)C(=O)N[C@H](C)C(=O)N[C@@H](Cc1ccc(O)cc1)C(=O)O [Ac-Phe-Lys-Ala-Cha-Ala-Leu-ala-Tyr-OH] (Ac-FKA[Cha]AL[dA]Y-OH)	0.17
Ac-Phe-Lys-Ala-Cha-Ala-Leu-N-Methyl(D)ala-Arg-OH (Ac-FKA[Cha]AL[dNMeA]R-OH; SMILES CC(=O)N[C@@H](Cc1ccccc1)C(=O)N[C@@H](CCCCN)C(=O)N[C@@H](C)C(=O)N[C@@H](CC1CCCCC1)C(=O)N[C@@H](C)C(=O)N[C@@H](CC(C)C)C(=O)N(C)[C@H](C)C(=O)N[C@@H](CCCNC(=N)N)C(=O)O)	0.012
(N-Ethyl)Phe-Lys-Ala-Cha-Ala-Leu-N-Methyl(D)ala-Arg-OH ([NEtPhe]KA[Cha]AL[dNMeA]R-OH; N-terminus assumed; SMILES CCN[C@@H](Cc1ccccc1)C(=O)N[C@@H](CCCCN)C(=O)N[C@@H](C)C(=O)N[C@@H](CC1CCCCC1)C(=O)N[C@@H](C)C(=O)N[C@@H](CC(C)C)C(=O)N(C)[C@H](C)C(=O)N[C@@H](CCCNC(=N)N)C(=O)O)	0.011

molecular target: T3, C5a receptor (Homo sapiens, UniProt P21730); test: not given; details: read-out: IC50 as a measure for affinity (WO 03/033528); cited from earlier work
T3 sequence (P21730 1-350): T1 sequence (looked up)

Molecule	IC50 [µM]
Ac-Phe[Orn-Pro-cha-Trp-Arg] with the Arg substituted with lysine (WO 03/033528); number 47 also printed for canavanine [WO 03/033528 compound 47]	24
Ac-Phe[Orn-Pro-cha-Trp-Arg] with the Arg substituted with homoarginine (WO 03/033528) [WO 03/033528 compound 44]	1.36

system: human PMNs; test: not given; details: myeloperoxidase release, read-out: IC50 antagonistic activity (WO 99/00406); cited from earlier work

Molecule	IC50 [µM]
Me-Phe-Lys-Pro-cha-Trp-arg (FKPXWX; N-methyl, D-cha, D-Arg; oligopeptide with antagonistic activity at the C5a receptor)	0.085
